One test has as its target T1, TfR1 peptide D1-helix1 (human).
T1 construct: Synthetic peptide, captured on a streptavidin-coated plate; also called peptide No. 1
T1 peptide: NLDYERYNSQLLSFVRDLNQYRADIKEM
As to the kind of experiment: peptide ELISA on streptavidin plate, 2 µg/mL 2H7-hFc. The protocol: (§1) The peptide-antibody binding was identified using a standard enzyme-linked immunosorbent assay (ELISA). The steps were as follows: [0244] (1) The wells of an ELISA plate were coated with 100 μL of 2 μg/mL SA (streptavidin) protein at 4° C. overnight. […] (2) The wells of the ELISA plate were washed with PBST buffer. After adding 200 μL of 2% BSA, the plate was blocked at 37° C. for 1 h. […] (3) The peptide protein was diluted to 2 μg/mL, and a negative control and a positive control (AVI-tagged TfR1 protein) were included. Each experiment contained duplicate controls. […] (4) The wells of the ELISA plate were washed multiple times with PBST buffer. Then, 100 μL of the diluted peptide protein solution from step (3) was added into wells in duplicate, and along with the negative control wells, incubated at 37° C. for 1 h. [0248] (5) The wells of the ELISA plate were washed multiple times with PBST buffer. […] [0249] (6) The wells of the ELISA plate were washed multiple times with PBST buffer. Then, 100 μL of 2× anti-hFc HRP secondary antibody was added, and the plate was incubated at 37° C. for 1 h. [0250] (7) The wells of the ELISA plate were washed multiple times with PBST buffer. After adding 100 μL of TMB chromogenic solution, the reaction was carried out in the dark at room temperature for 30 min. [0251] (8) 100 μL of stop solution (1 mol/L HCl) was added to terminate the reaction. OD450 was measured using a microplate reader, and the readings were recorded.

Test [1] has as its target T2, TfR1 peptide D1-helix2-helix3 (human).
T2 construct: Synthetic peptide, captured on a streptavidin-coated plate; also called peptide No. 4
T2 peptide: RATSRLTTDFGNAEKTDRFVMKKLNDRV
Described as above. The protocol:
as §1

Another test deals with T3, TfR1 peptide D3-helix1 (human).
T3 construct: Synthetic peptide, captured on a streptavidin-coated plate; also called peptide No. 5
T3 peptide: RLYWDDLKRKLSEKLDSTD
The test is described as above. The protocol: as §1

Test [2] concerns the target T4, TfR1 peptide D3-helix2 (human).
T4 construct: Synthetic peptide, captured on a streptavidin-coated plate; also called peptide No. 6
T4 peptide: FTSTIKLLNENSYV
Described as above. On the procedure: as §1

The next test deals with T5, TfR1 peptide D3-helix3 (human).
T5 construct: Synthetic peptide, captured on a streptavidin-coated plate; also called peptide No. 7
T5 peptide: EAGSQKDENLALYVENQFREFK
Described as above. The protocol: as §1

Test [3] concerns the target T6, TfR1 peptide D3-helix1-helix2 (human).
T6 construct: Synthetic peptide, captured on a streptavidin-coated plate; also called peptide No. 8
T6 peptide: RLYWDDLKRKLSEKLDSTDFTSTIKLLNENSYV
The test is described as above. On the procedure:
as §1

The target of test [4] is T7, TfR1 peptide D3-helix2-helix3 (human).
T7 construct: Synthetic peptide, captured on a streptavidin-coated plate; also called peptide No. 9
T7 peptide: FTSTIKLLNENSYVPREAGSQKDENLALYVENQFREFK
The test is described as above. On the procedure:
as §1

Test [5] has as its target T8, TfR1 peptide D3-helix3-loop1 (human).
T8 construct: Synthetic peptide, captured on a streptavidin-coated plate; also called peptide No. 10
T8 peptide: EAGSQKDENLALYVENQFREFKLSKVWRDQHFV
The description is as above. The protocol:
as §1

For the next test, the target named is T9, TfR1 peptide D3-loop1 (human).
T9 construct: Synthetic peptide, captured on a streptavidin-coated plate; also called peptide No. 11
T9 peptide: LSKVWRDQHFV
The test is described as above. The protocol: as §1

A further test deals with T10, TfR1 peptide D2-loop1 (human).
T10 construct: Synthetic peptide, captured on a streptavidin-coated plate; also called peptide No. 12
T10 peptide: GTKKDFEDLY
The description is as above. On the procedure:
as §1

The target of another test is T11, TfR1 peptide D2-loop1-K (human).
T11 construct: Synthetic peptide, captured on a streptavidin-coated plate; also called peptide No. 13
T11 peptide: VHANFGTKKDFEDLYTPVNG
The description is as above. The protocol: as §1

The target in the next test is T12, TfR1 peptide D2-loop3-K (human).
T12 construct: Synthetic peptide, captured on a streptavidin-coated plate; also called peptide No. 14
T12 peptide: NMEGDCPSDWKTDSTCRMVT
The description is as above. On the procedure:
as §1

Test [6] addresses T13, TfR1 peptide D1-helix5 (human).
T13 construct: Synthetic peptide, captured on a streptavidin-coated plate; also called peptide No. 17
T13 peptide: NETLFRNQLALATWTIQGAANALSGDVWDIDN
The test is described as above. On the procedure:
as §1

The target of a further test is T14, TfR1 peptide D2-loop2-K (human).
T14 construct: Synthetic peptide, captured on a streptavidin-coated plate; also called peptide No. 21
T14 peptide: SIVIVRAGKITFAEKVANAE
Described as above. On the procedure: as §1

Test [7] has as its target T2, TfR1 peptide D1-helix2-helix3. As to the kind of experiment: peptide ELISA on streptavidin plate, 2 µg/mL 2H7-hFc, anti-hFc HRP. The protocol:
as §1

Test [8] has as its target T4, TfR1 peptide D3-helix2. The test is described as above. On the procedure: as §1
Test [9] has as its target T7, TfR1 peptide D3-helix2-helix3. The test is described as above. On the procedure: as §1
Another test has as its target T15, TfR1 peptide D1-helix3 (human).
T15 construct: Synthetic peptide, captured on a streptavidin-coated plate; also called peptide No. 16
T15 peptide: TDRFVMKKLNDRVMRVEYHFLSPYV
Described as above. The protocol:
as §1

Test [10] addresses T13, TfR1 peptide D1-helix5. Described as above. On the procedure:
as §1

B1: anti-humanized TfR1 single-domain antibody-Fc fusion antibody 2H7-hFC1 (Fc fusion)
chain (part 1 of 2): ESGGGLVQPGESLRLSCVASGSIWSIYTMGWYRQAPGKQRDFVASITGDSTRTLESVKDRFIISRDNTKNTLYLQMNSLKPEDTAVYYCQAITSLGEYWGQGTQVTVSS
notes: Expressed in 293F cells, Protein A purified; labelled with pHrodo iFL Green in the internalization assays; also called VHH-hFc; not shown: human IgG1 Fc: hinge, CH2 and CH3 regions, from vector RJK-V4-hFC1; limits and junction (multiple cloning site) not stat
For B1, the binding result with TfR1 peptide D1-helix1 is given as “no binding (tested: P/N 1.2, limit 2)”; in test [1] it was “no binding (tested: P/N 1.4, limit 2)”; with TfR1 peptide D3-helix1, “no binding (tested: P/N 1.1, limit 2)”; with TfR1 peptide D3-helix2 [2], “no binding (tested: P/N 1.3, limit 2)”; in the test with TfR1 peptide D3-helix3, “no binding (tested: P/N 1.1, limit 2)”; in [3], “no binding (tested: P/N 1.1, limit 2)”. Moreover, the binding result in test [4] is reported as “no binding (tested: P/N 1.2, limit 2)”; in test [5] it was “no binding (tested: P/N 1.7, limit 2)”; with TfR1 peptide D3-loop1 it was “no binding (tested: P/N 1.4, limit 2)”; with TfR1 peptide D2-loop1 it was “no binding (tested: P/N 1.4, limit 2)”; with TfR1 peptide D2-loop1-K it was “no binding (tested: P/N 1.2, limit 2)”; in the test with TfR1 peptide D2-loop3-K, “no binding (tested: P/N 1.5, limit 2)”. The binding result in the test with TfR1 peptide D1-helix5 [6] is recorded as “no binding (tested: P/N 1.2, limit 2)”; with TfR1 peptide D2-loop2-K it was “no binding (tested: P/N 1.3, limit 2)”. Besides, the OD450 in [7] amounted to 0.19; with TfR1 peptide D3-helix2 [8], 0.17; in test [9], 0.247; with TfR1 peptide D1-helix3 it was 0.974; with TfR1 peptide D1-helix5 [10], 0.206. Also, the P/N with TfR1 peptide D1-helix3 came to 5.

(Values after patent US20260217847A1 (NANJING REGENECORE BIOTECH, published 2026).)
